Data as given in patent US20260242478A1 (published 2026).
Where no end group is shown, it is not given here.

B1: Phage-3811 (Peptide-180 library clone, SEQ ID NO: 4127) (peptide)
peptide: SFQRCEPEWMCYGF
notes: Tested as clonal phage supernatant; not shown: pIII coat protein of the bacteriophage to which the peptide is fused
B2: Phage-3804 (Peptide-180 library clone, SEQ ID NO: 4120) (peptide)
peptide: IRALCEPSWMCTGF
notes: as for B1
B3: Phage-3798 (peptide)
peptide: MSMYCVPTWMCNGF
notes: Clone of the Peptide-180 optimisation library, tested as clonal phage supernatant
B4: Phage-3802 (Peptide-180 library clone, SEQ ID NO: 4118) (peptide)
peptide: EVLRCVPRWMCEKF
notes: as for B1
B5: Phage-3809 (Peptide-180 library clone, SEQ ID NO: 4125) (peptide)
peptide: DARLCKPTWMCMGL
notes: as for B1
B6: Phage-3806 (Peptide-180 library clone, SEQ ID NO: 4122) (peptide)
peptide: DQAACVPAWMCTGF
notes: as for B1
B7: Phage-3813 (Peptide-180 library clone, SEQ ID NO: 4129) (peptide)
peptide: YTAMCVPVWMCNVL
modifications: cysteine pairing not given here; also: displayed on phage as fusion to pIII, junction not given here
notes: as for B1
B8: Phage-3799 (peptide)
peptide: LELACRPMWMCQGF
notes: as for B3
B9: Phage-3808 (Peptide-180 library clone, SEQ ID NO: 4124) (peptide)
peptide: LGVQCKPTWMCQGF
notes: as for B1
B10: Phage-3812 (Peptide-180 library clone, SEQ ID NO: 4128) (peptide)
peptide: AYPMCSPAWMCAGF
modifications: cysteine pairing not given here; also: displayed on phage as fusion to pIII, junction not given here
notes: as for B1
B11: Phage-3805 (Peptide-180 library clone, SEQ ID NO: 4121) (peptide)
peptide: HMIHCVPDWMCEGF
notes: as for B1
B12: Phage-3803 (Peptide-180 library clone, SEQ ID NO: 4119) (peptide)
peptide: GGPMCKPVWMCQGF
notes: as for B1
B13: Phage-3810 (Peptide-180 library clone, SEQ ID NO: 4126) (peptide)
peptide: GDQMCIPLWMCEGF
notes: as for B1
B14: Phage-3807 (Peptide-180 library clone, SEQ ID NO: 4123) (peptide)
peptide: VVSHCKPIWMCSGF
notes: as for B1
B15: Phage-3801 (Peptide-180 library clone, SEQ ID NO: 4117) (peptide)
peptide: EWLVCKPAWMCLGL
notes: as for B1
B16: Phage-3800 (Peptide-180 library clone, SEQ ID NO: 4116) (peptide)
peptide: LELLCRPSWMCEGF
modifications: cysteine pairing not given here; also: displayed on phage as fusion to pIII, junction not given here
notes: as for B1

Tests used:
[1] = target: T1, PSMA Fab (SEQ ID NOs: 19, 20); assay: clonal phage ELISA; captured biotinylated PSMA Fab pre-incubated with PSMA antigen as competitor, anti-M13-HRP detection
T1 construct: also called Anti-PSMA Fab; 006 PSMA Fab
Procedure: (§1) Clonal phage were harvested as crude supernatants and screened via standard ELISAs. […] Prior to the addition of clonal phage. wells were incubated with blocking buffer and PSMA antigen or blocking buffer alone. Without washing or aspirating, clonal phage supernatants were then added to the wells and incubated for a short time. Wells were then washed followed by detection of bound phage using a horse radish conjugated anti-M13 antibody.

[2] = target: T1, PSMA Fab (SEQ ID NOs: 19, 20); assay: clonal phage ELISA; biotinylated PSMA Fab captured on neutravidin plate, bound phage detected with anti-M13-HRP
Procedure: as §1

Anti-PSMA Fab [3] = target: T2, Anti-PSMA Fab; assay: clonal phage ELISA on captured PSMA Fab, wells pre-incubated with PSMA antigen as competitor, anti-M13-HRP detection;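 also: crude clonal phage supernatants added without washing after the PSMA preincubation, comparison wells received blocking buffer alone without PSMA, bound phage read after washing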
T2 construct: also called 006 PSMA Fab
Procedure: as §1

Anti-PSMA Fab [4] = target: T2, Anti-PSMA Fab; assay: clonal phage ELISA on biotinylated PSMA Fab captured on neutravidin plates, anti-M13-HRP detection;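 also: crude clonal phage supernatants added to wells preincubated with PSMA antigen or with blocking buffer only (no wash between), briefly incubated, then washed before detecting bound phage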
Procedure: as §1

| Binder | Phage binding ELISA signal, Anti-PSMA Fab with PSMA antigen [1] | Phage binding ELISA signal, Anti-PSMA Fab [2] | Phage binding ELISA signal, Anti-PSMA Fab with PSMA antigen (Anti-PSMA Fab [3]) | Phage binding ELISA signal, Anti-PSMA Fab (Anti-PSMA Fab [4]) |
| --- | --- | --- | --- | --- |
| B1 | 0.0768 | 1.29 |  |  |
| B2 | 0.0766 | 1.3 |  |  |
| B3 |  |  | 0.0602 | 1.31 |
| B4 | 0.0658 | 1.3 |  |  |
| B5 | 0.0886 | 1.29 |  |  |
| B6 | 0.117 | 1.3 |  |  |
| B7 | 0.0695 | 1.29 |  |  |
| B8 |  |  | 0.0709 | 1.31 |
| B9 | 0.0911 | 1.29 |  |  |
| B10 | 0.0779 | 1.29 |  |  |
| B11 | 0.0847 | 1.3 |  |  |
| B12 | 0.0735 | 1.3 |  |  |
| B13 | 0.106 | 1.29 |  |  |
| B14 | 0.083 | 1.29 |  |  |
| B15 | 0.0609 | 1.3 |  |  |
| B16 | 0.0665 | 1.3 |  |  |
